The Human Domainome abundance scans (Beltran et al. 2025)

B1: Tyrosine-protein kinase BTK, residues 215 to 273; numbered along this chain, Q06187 (parent)
chain: ELKKVVALYDYMPMNANDLQLRKGDEYFILEESNLPWWRARDKNGQEGYIPSNYVTEAE
B2: Tripartite motif-containing protein 49C, residues 87 to 133; numbered along this chain, P0CI26 (parent)
chain: SSEEQMCGTHRETKKIFCEVDRSLLCLLCSSSQEHRYHRHRPIEWAA

Variants of: B1
Experiment: abundance fitness (aPCA) (normalised: wild type 0, dead -1); higher = more abundant; growth selection in yeast, the domain comes from the species named
Conditions: Homo sapiens

Abundance fitness: each site, then its substitutions
V5: M -0.134, C -0.213, Q -0.329, P -0.755, I -0.189, T -0.323, H -0.335, F -0.052, E -0.708, K -0.288, Y -0.113, N -0.839, S -0.404, L -0.244, G -0.425
L8: C -0.04, V -0.055, Q -0.093, A -0.124, N -0.118, G -0.338, M -0.014, T -0.019, D -0.137, R -0.017, F -0.222, P -0.657, K -0.003, E -0.094, S -0.107
A7: S -0.142, L -1, E -0.813, D -0.909, H -0.804, P -0.654, K -0.955, N -1.11, M -0.837, G -0.364, T -0.801, C -0.203, R -1.04, V -0.681, F -0.599, I -0.966, W -1.03, Y -1.06, Q -0.828
A16: C -0.063, D 0.044, E 0.013, I -0.229, M -0.141, H -0.026, P -0.093, N -0.045, T -0.031, L -0.083, Q 0.016, S -0.042, F -0.18, K -0.068, R -0.055
N15: H -0.048, Y -0.23, W -0.14, V 0.052, F -0.176, A -0.077, M -0.03, P -0.442, L 0.004, E -0.011, R 0.026, S 0.059, I -0.079, D -0.018, T 0.089, G 0.065
V6: F -0.073, L -0.052, I -0.028, G -0.636, W -0.067, T -0.017, Q -0.025, E -0.135, S -0.19, K -0.023, R -0.093, M -0.1, P -0.796, C -0.103, H -0.154
Y11: F 0.005, V -0.298, M -0.099, H -0.155, R 0.032, T -0.182, Q -0.316, N -0.383, I -0.245, P -0.704, G -0.709, C -0.202, W 0.017, E -0.562, D -0.72, S -0.161, L -0.094
E1: F -0.094, Y -0.062, L -0.074, P -0.305, H -0.174, A -0.172, W -0.088, K -0.035, C -0.252, N -0.012, D -0.103, Q -0.121, I -0.106, R -0.15, V -0.074, T -0.288
L2: I -0.089, M -0.055, W -0.088, N 0.012, V -0.116, K -0.095, F 0.011, A -0.093, G -0.018, E -0.126, Y -0.036, R -0.075, T -0.161, S -0.075, C -0.177, Q -0.013, H -0.167, P -0.136
D10: N -0.102, G -0.168, F -0.758, C -0.783
K3: L -0.102, I -0.257, C -0.223, G -0.227, R -0.065, P -0.234, N -0.112, S -0.135, A -0.225, D -0.22, V -0.107, Q -0.293, E -0.309, Y -0.205, W -0.253, M 0, T -0.117, F -0.038, H -0.224
M14: T -0.028, L -0.018, A 0.051, K -0.007, R 0.051, N 0.059, D -0.013, W -0.129, G 0.02, H 0.068, C -0.08, F 0.022, P -0.002, S -0.001, V 0.026, Q 0.038, Y -0.15, I -0.049
M12: C 0.032, N -0.007, F -0.062, D -0.04, V -0.022, K 0.065, E 0.017, L 0.016, R -0.002, G -0.136, S 0.007, Q -0.009, P -0.008, T 0.016, H 0.006, A 0.017, I 0.036, Y -0.018, W -0.07
P13: D -0.458, Q -0.296, E -0.343, M -0.406, I -0.193, C -0.235, S -0.081, Y -0.774, R -0.153, L -0.734, K -0.119, N -0.275, H -0.51, G -0.068, W -0.778, F -1.08, A -0.082
K4: G -0.357, H -0.322, M -0.133, I -0.033, E -0.135, T -0.036, S -0.1, W -0.334, Q -0.088, C -0.225, V -0.079, L -0.089, Y -0.285, D -0.287, P -0.15, R -0.072, A -0.168, N -0.339
Y9: D -0.007, K 0.073, A 0.062, M 0.053, G -0.018, Q 0.098, V 0.031, C 0.006, P -0.663, L 0.056, R 0.057, W -0.053, F 0.012, S 0.053, E 0.001, N 0.07

Variants of: B2
Experiment: as above
Conditions: Homo sapiens

Abundance fitness, by site and new letter:
F17: D -0.726
H10: T -0.772
C18: K -0.381, W -0.907
T9: D -0.395, C -0.565
R11: C -0.008
Q5: F -0.424, H -0.315
A46: K -0.368, H -0.276, W -0.156, P 0.2, Q -0.085
E44: P -0.449, R -0.507, I -0.359
H35: V -0.892
A47: S -0.565, N -0.007, M -0.025
E19: L -0.651, P -0.026, R -0.602
W45: P 0.346
R22: F -0.772, D -0.101, T -0.764
P42: M -0.366, S -0.122
I16: S -0.439, P -0.574
R36: G -0.454, N -0.028, E -0.308
S32: D -0.041, C -0.414
E34: P -0.834, T -0.349, M -0.496
L28: M 0.024, R -0.068
I43: T -0.54, F 0.594, S -0.011
K14: P -0.431, F -0.811, T -0.644
D21: G -0.357, R -0.152
M6: G -0.553
C7: S -0.636, V -0.722
E3: P -0.172, A 0.051
E12: P -0.671, V -0.072
R41: K -0.402, T -0.292, D 0.496
K15: L -0.3
Q33: W -0.352
H40: P -0.767, F -0.709, R -0.563, M -0.633
L24: C -0.174
L25: N -0.502
C26: E -0.806, V -1.1
L27: D 0.158, I -0.063, Y 0.059, S 0.058, W -0.017
E4: M 0.015
S30: P -0.622
